Measurements reported in publication PMC7141136, “Ohr and OhrR Are Critical for Organic Peroxide Resistance and Symbiosis in Azorhizobium caulinodans ORS571”.

How the values were obtained:
Conditions in all cases: protein: recombinant; tags: N-terminal 6xHis (pET-28a); chain copies: 2; label: none (GelRed stain)
[1] = target: T1, OhrR C121S (Azorhizobium caulinodans ORS571, UniProt A8IEZ4 1-144, C121S); experiment: EMSA; reducing; 50 mM Tris-HCl pH 8.3, 0.25 M KCl, 2.5 mM DTT, 5 mM MgCl2, 0.05 ug/mL poly(dI-dC), 2.5 mM EDTA, 1% glycerol; 20 nM DNA, 20 uL, 20 min, room temperature; 6% native PAGE in 0.5x TBE
T1 sequence: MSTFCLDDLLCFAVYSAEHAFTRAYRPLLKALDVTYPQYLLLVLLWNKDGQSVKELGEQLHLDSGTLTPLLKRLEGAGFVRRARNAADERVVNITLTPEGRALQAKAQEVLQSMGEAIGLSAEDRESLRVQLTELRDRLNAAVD

[2] = target: T2, OhrR C11S (Azorhizobium caulinodans ORS571, UniProt A8IEZ4 1-144, C11S); experiment: as above
T2 sequence: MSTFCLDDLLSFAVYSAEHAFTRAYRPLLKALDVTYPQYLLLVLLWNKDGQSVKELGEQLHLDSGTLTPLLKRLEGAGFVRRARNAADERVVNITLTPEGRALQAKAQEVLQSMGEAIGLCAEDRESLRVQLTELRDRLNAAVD

[3] = target: T3, OhrR C11S C121S (Azorhizobium caulinodans ORS571, UniProt A8IEZ4 1-144, C11S;C121S); experiment: EMSA; CuOOH; binding not affected; 50 mM Tris-HCl pH 8.3, 0.25 M KCl, 2.5 mM DTT, 5 mM MgCl2, 0.05 ug/mL poly(dI-dC), 2.5 mM EDTA, 1% glycerol; 20 nM DNA, 20 uL, 20 min, room temperature; 6% native PAGE in 0.5x TBE
T3 sequence: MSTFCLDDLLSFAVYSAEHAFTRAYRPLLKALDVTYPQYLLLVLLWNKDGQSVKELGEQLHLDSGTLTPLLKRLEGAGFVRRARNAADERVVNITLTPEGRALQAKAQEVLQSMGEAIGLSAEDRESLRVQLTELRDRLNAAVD

Measured: binding result

B1: ohr promoter probe (181 bp) (dsDNA)
DNA 1: CAAAGGGTTAGTTTTCCGTTGCGGAAGGTTGGGTGATGTTGACGGTGGTCTGCAAAATAAGTTTGACACAATCAAATTGTGTGCTACTTAAATGGCCATGGAAGCGGCTTGGCCGTTTCTCATCGATTTCTCAAGGCACGAGGATCAAGCGATGTCCGTCGATGTGAAGTACACCACCAAG
DNA 2: CTTGGTGGTGTACTTCACATCGACGGACATCGCTTGATCCTCGTGCCTTGAGAAATCGATGAGAAACGGCCAAGCCGCTTCCATGGCCATTTAAGTAGCACACAATTTGATTGTGTCAAACTTATTTTGCAGACCACCGTCAACATCACCCAACCTTCCGCAACGGAAAACTAACCCTTTG
binds: all assays above
